Experimental data from patent US20240409645A1.

Key:
[1] = target: T1, human interleukin-2 receptor β-chain (IL-2Rβ; CD122), recombinant protein (human) (UniProt P14784); test: ELISA, monovalent VHH-hFc
T1 sequence: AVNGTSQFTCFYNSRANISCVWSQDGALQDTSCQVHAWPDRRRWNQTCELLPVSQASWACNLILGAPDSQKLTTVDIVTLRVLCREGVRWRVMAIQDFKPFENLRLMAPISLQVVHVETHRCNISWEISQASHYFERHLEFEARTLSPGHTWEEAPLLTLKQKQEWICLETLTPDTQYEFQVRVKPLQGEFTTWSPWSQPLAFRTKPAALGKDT

mouse IL-2Rβ (mouse) = target: T2, mouse IL-2Rβ (mouse) (UniProt P16297); test: P.E. binding ELISA
T2 sequence (looked up): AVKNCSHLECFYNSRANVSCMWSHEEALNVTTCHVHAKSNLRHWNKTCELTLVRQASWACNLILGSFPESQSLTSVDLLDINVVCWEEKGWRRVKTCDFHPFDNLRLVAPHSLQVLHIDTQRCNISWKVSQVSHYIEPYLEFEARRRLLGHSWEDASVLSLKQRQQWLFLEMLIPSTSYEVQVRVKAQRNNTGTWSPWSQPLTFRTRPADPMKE

mouse IL-2Rα (mouse) = target: T3, mouse IL-2Rα (mouse) (UniProt P01590); test: P.E. binding ELISA
T3 sequence (looked up): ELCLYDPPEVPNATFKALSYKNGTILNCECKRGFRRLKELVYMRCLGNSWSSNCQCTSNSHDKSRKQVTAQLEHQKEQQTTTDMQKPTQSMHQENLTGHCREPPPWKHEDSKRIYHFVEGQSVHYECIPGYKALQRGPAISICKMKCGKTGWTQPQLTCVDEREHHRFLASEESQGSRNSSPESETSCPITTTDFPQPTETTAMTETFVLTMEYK

[2] = target: T4, cynomolgus monkey IL-2Rβ/CD122 subunit (cynomolgus monkey) (UniProt Q38J85); test: ELISA, monovalent VHH-hFc
T4 sequence (looked up): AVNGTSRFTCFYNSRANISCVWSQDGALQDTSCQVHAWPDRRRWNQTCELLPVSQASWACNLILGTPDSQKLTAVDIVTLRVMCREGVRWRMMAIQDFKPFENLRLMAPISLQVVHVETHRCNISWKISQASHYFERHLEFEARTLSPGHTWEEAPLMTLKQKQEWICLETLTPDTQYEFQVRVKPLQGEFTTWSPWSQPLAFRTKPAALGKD

[3] = target: T4, cynomolgus monkey IL-2Rβ/CD122 subunit (cynomolgus monkey); test: ELISA, monovalent; EC50 cyno vs human subunit
[4] = target: cynomolgus monkey IL-2Rα/CD25 subunit (cynomolgus monkey) (UniProt H6WS54); test: ELISA, monovalent VHH-hFc
Chain of cynomolgus monkey IL-2Rα/CD25 subunit (cynomolgus monkey) (H6WS54 entry or part of it): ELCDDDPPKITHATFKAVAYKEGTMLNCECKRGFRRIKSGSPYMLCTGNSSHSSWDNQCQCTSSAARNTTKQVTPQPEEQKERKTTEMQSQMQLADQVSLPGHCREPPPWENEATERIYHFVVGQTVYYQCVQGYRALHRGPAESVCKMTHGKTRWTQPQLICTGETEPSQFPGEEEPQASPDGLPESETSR

[5] = target: human interleukin-2 receptor α-chain (IL-2Rα; CD25), recombinant protein (human) (UniProt P01589); test: ELISA, monovalent VHH-hFc
Chain of human interleukin-2 receptor α-chain (IL-2Rα; CD25), recombinant protein (human) (P01589 22-240 limits assumed): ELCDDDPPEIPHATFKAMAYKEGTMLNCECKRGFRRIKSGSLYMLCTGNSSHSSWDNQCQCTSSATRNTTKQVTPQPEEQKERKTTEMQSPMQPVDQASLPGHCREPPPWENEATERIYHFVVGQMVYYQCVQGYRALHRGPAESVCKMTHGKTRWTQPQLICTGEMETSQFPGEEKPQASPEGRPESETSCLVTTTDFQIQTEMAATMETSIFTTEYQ

[6] = target: cynomolgus monkey IL-2Rα/CD25 subunit (cynomolgus monkey) (UniProt H6WS54); test: ELISA, monovalent; EC50 cyno vs human subunit

| EC50 [1] [nM] | EC50 [2] [nM] | Fold change [3] [fold] | Binder | also measured |
| --- | --- | --- | --- | --- |
| 0.206 | 0.657 | 3.2 | 24-MP06E05 VHH-hFc, monospecific monovalent (Fc fusion, part only; not given: Both Fc arms and linker, not shown: another chain or arm of the molecule; a dimerising Fc or GST; large carriers; small tags and cut ends) VHH: QVQLVESGGELVQGGASLRLSCAASGRTFSNANMAWFRQAPEKEREFVALITWSSGSTLYADSVKGRFTISRDNARKMVYLQMNSLKPEDTAVYYCAADGPPYSGTYYRYDTYDYWGQGTQVTVSS | – |
| 0.174 | 0.26 | 1.5 | 23-MP06F03 VHH-hFc, monospecific monovalent (Fc fusion, part only; not given: Both Fc arms and linker, not shown: another chain or arm of the molecule; a dimerising Fc or GST; large carriers; small tags and cut ends) VHH: QVQLVESGGGLVQAGGSLRLSCAVSGDVFVRYTMAWFRQAPGKEREFVASVTDSGRTTDYVHSVKGRFTVSRDNAKNTVYLQMNNLKPEDTAVYYCAANTDYFQIKSLDANTWGQGTQVTVSS | – |
| 0.67 | 0.953 | 1.4 | 19-MP03F08 VHH-hFc, monospecific monovalent (Fc fusion, part only; not given: Both Fc arms and linker, not shown: another chain or arm of the molecule; a dimerising Fc or GST; large carriers; small tags and cut ends) VHH: EVQLVESGGGLVQTGGSLRLSCAASGGTFSRDAMAWFRQVPGKEREFVALISWSGATTNYADSVKGRFAISRDNGKNTVYLQMNRLKPADTAIYYCAADRRPMGSRSYFEPTEYDDWGQGTQVTVSS | – |

More lines, now with the values behind:

| Binder | EC50 [1] [nM] | EC50 [2] [nM] | Fold change [3] [fold] | also measured |
| --- | --- | --- | --- | --- |
| 18-MP03C03 VHH-hFc, monospecific monovalent (Fc fusion, part only; not given: Both Fc arms and linker, not shown: another chain or arm of the molecule; a dimerising Fc or GST; large carriers; small tags and cut ends) VHH: QVQLVESGGGLVQPGGSLRLSCAISGGTLDSYGIGWVRQAPGKQREGVSCMSRSDDRTYYADSVKGRFTISKDSAKNTVYLQMTSLKPEDTAVYYCAAVDAYGCSLVQPTTYDFWGLGTQVTVSS | 0.373 | – | – | – |
| 18-MP03C03 VHH (periplasmic extract) (VHH) VHH: QVQLVESGGGLVQPGGSLRLSCAISGGTLDSYGIGWVRQAPGKQREGVSCMSRSDDRTYYADSVKGRFTISKDSAKNTVYLQMTSLKPEDTAVYYCAAVDAYGCSLVQPTTYDFWGLGTQVTVSS | – | – | – | OD450 nm (mouse IL-2Rβ (mouse)): 0.048 OD450 nm |
| 3-MP01E03 VHH (periplasmic extract) (VHH) VHH: QVQLVESGGGLVQAGGSLRLSCTASGRTLSSYSMAWFRQAADKGREFVTAISSSGVVTHVLDSVKGRFTISRDNAKNTVYLQMNSLQPEDTALYFCAGTASSYSTYEANYNYWGQGTLVTVSS | – | – | – | OD450 nm (mouse IL-2Rα (mouse)): 0.046 OD450 nm |
| 24-MP06E05 VHH (periplasmic extract) (VHH) VHH: QVQLVESGGELVQGGASLRLSCAASGRTFSNANMAWFRQAPEKEREFVALITWSSGSTLYADSVKGRFTISRDNARKMVYLQMNSLKPEDTAVYYCAADGPPYSGTYYRYDTYDYWGQGTQVTVSS | – | – | – | OD450 nm (mouse IL-2Rβ (mouse)): 0.046 OD450 nm |
| 6-MP01G05 VHH (periplasmic extract) (VHH) VHH: QVQLQESGGGLVQAGGSLRLSCAASGRTFSSYAMGWFRQAPGKEREFVAVISWNVDNTEYTDSVKGRFTISRDNDKNMVYLQMNSLKPEDTAVYYCAADSIPLSSDMSPTATEYGYWGQGTQVTVSS | – | – | – | OD450 nm (mouse IL-2Rα (mouse)): 0.046 OD450 nm |
| 26-MP06A07 VHH-hFc, monospecific monovalent (Fc fusion, part only; not given: Both Fc arms and linker, not shown: another chain or arm of the molecule; a dimerising Fc or GST; large carriers; small tags and cut ends) VHH: QVQLQESGGGLVQAGGSLRLSCAASGDVFVRYTMAWFRQAPGKEREFVASVTDSGRTTEYVDSVKGRFTVSRDNAKNTAYLQMNNLKPEDTAIYYCAANTDYFQIRSLDLNTWGQGTQVTVSS | 0.086 | 0.102 | 1.2 | – |
| 11-MP05H04 VHH-hFc, monospecific monovalent (Fc fusion, part only; not given: Both Fc arms and linker, not shown: another chain or arm of the molecule; a dimerising Fc or GST; small tags and cut ends) VHH: QLQLVESGGGLVQAGGSLRLSCAASGLTFEGYAIGWFRQAPGKEREGVSYITGSDGTTYYINSVKGRFTISSDNAKSTVYLQMNTLKPEDTAVYYCAVDRLGSQGRYASAWWRSGDMDLWGKGTQVTVSS | – | – | – | EC50 [4]: 1.25 nM; EC50 [5]: 0.378 nM; Fold change [6]: 3.3 fold |
| 12-MP05B12 VHH-hFc, monospecific monovalent (Fc fusion, part only; not given: Both Fc arms and linker, not shown: another chain or arm of the molecule; a dimerising Fc or GST; small tags and cut ends) VHH: QVQLVESGGGLVQAGGSLRLSCAASGFTFDGYAIGWFRQAPGKEREGVSYITGSDGSTYYADSVKGRFTISSNNAKNTVYLHMNSLKPDDAAVYYCAIDRLGSRGAYVPIWWRSSDMDLWGKGTLVTVSS | – | – | – | EC50 [4]: 1.1 nM; EC50 [5]: 0.13 nM; Fold change [6]: 8.5 fold |
| 19-MP03F08 VHH (periplasmic extract) (VHH) VHH: EVQLVESGGGLVQTGGSLRLSCAASGGTFSRDAMAWFRQVPGKEREFVALISWSGATTNYADSVKGRFAISRDNGKNTVYLQMNRLKPADTAIYYCAADRRPMGSRSYFEPTEYDDWGQGTQVTVSS | – | – | – | OD450 nm (mouse IL-2Rβ (mouse)): 0.049 OD450 nm |
